Source: the supplement of paper PMC10567573

B1: CCDC6 (parent)
chain: TLFKKIQALQKEKETLAVNYEKEE
B2: PI4K2A (parent)
chain: FVKDPQGRIIAVFKPKNEEPYGHL

Variants of: B1
Assay: protein stability index of a GFP-peptide fusion (GPS, HEK-293T) (PSI 1-6); higher = more stable
Conditions: c terminus: a fixed tail appended
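Further: lentivirally expressed fusions sorted by FACS into six bins by GFP to DsRed ratio, PSI derived from sequencing read proportions per bin multiplied by bin number.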

Protein stability index, by site and new letter:
T15: Q 2.98; I 3.98; H 2.76; Y 3.08; W 1.92; G 3.25; K 3.3; M 2.85; P 3.56; S 2.91; R 2.88; V 3.42; N 3.23; L 2.54
E24: F 2.04; C 3.06; G 2.68; W 1.91; N 2.7; P 2.53; T 2.82; I 2.19; D 3.45; Y 2.02; H 2.39; M 2.34; A 2.79; L 2.55; K 2.41; Q 2.84; V 2.25; R 2.1; S 2.77
A17: H 2.95; E 3.56; D 3.74; V 2.89; L 2.51; P 2.84; R 2.76; K 3.41; Y 2.46; T 3.18; N 2.65; F 2.49; W 2.16; G 3.1; S 2.71; C 3.39; I 2.85; Q 3.04; M 2.75
L16: Y 3.58; W 1.86; P 3.44; A 3.32; D 3.88; N 3.6; E 4.07; C 3.05; Q 4.1; I 2.69; F 2.81; T 3.49; H 3.91; R 3.02; V 3.23; K 2.83; M 3.24; G 4.09; S 4.02
Y20: C 3.32; P 3.21; K 3.68; A 3.54; G 3.71; S 3.84; W 3.26; N 3.57; R 3.53; F 3.06; H 3.62; T 3.62; M 2.45; D 4.09; E 4.32; I 2.96; L 3.45; V 3.47; Q 4.34
K22: D 3.88; W 2.48; S 3.29; E 3.72; G 3.39; L 2.89; C 3.46; F 2.57; A 3.27; R 2.94; N 3.12; V 2.94; H 3.15; Y 2.64; I 2.74; T 2.68; Q 3.3; P 3.5; M 3.08
V18: A 2.95; K 3.43; E 3.2; Y 2.53; G 3.15; S 3.31; I 3.04; H 3.62; D 3.43; C 2.95; F 2.58; T 3.02; N 3.63; M 2.81; P 3.16; R 2.66; L 3.79; Q 3.21; W 2.03
N19: H 3.08; W 2.11; S 2.99; E 3.64; I 2.7; Q 3.08; Y 2.33; A 3.11; R 2.57; D 3.15; G 3.25; K 2.69; P 3.24; L 2.41; M 2.65; T 3.34; C 3.14; V 2.58; F 2.18
E21: R 2.36; P 2.72; S 3.06; Q 3.1; W 1.92; G 3.01; V 2.52; F 1.62; M 2.11; A 2.26; Y 1.78; I 1.97; K 2.58; H 2.84; D 3.2; L 2.28; C 2.53; N 2.92; T 2.84
E23: P 2.25; K 2.68; M 2.7; Q 2.63; A 2.68; D 3.32; Y 2.76; L 2.19; V 2.27; F 1.99; C 2.34; R 2.29; W 1.78; S 2.89; H 2.93; N 3.14; T 3.02; G 2.58; I 2.69

Variants of: B2
Assay: as above
Conditions: c terminus: a fixed tail appended

Protein stability index of substitutions, site by site:
F1: N 3.21; K 2.8; D 3.69; P 4.09; V 2.84; A 2.63; C 2.77; T 3.36; W 1.89; H 2.44; I 2.18; Q 3.69; E 3.71; M 2.76; L 2.25; G 3.09; S 2.76
I9: C 1.85; K 2.63; T 2.34; R 1.59; W 2.5; V 2.56; E 2.17; D 3.44; N 4.29; F 2.01; Q 1.67; L 2.06; Y 1.9; S 2.61
I10: C 2.23; F 2.79; H 2.33; D 1.97; G 2.09; A 2.15
K3: W 2.19; Y 2.01; P 1.91; E 1.42; R 3.49; L 1.85; M 1.47; S 2.67; A 1.57; C 2.7; H 1.68; Q 1.32; I 2.03; G 2.56
G7: W 3.45; A 2.29; F 2.74; N 2.23; R 2.08; C 2.03; V 1.73; D 1.69; T 1.45; K 3.39; M 3.42; E 2.98; I 3; P 1.81; Q 2.07; H 2.79
P5: L 1.39; D 2.03; R 2.16; K 2.07; N 2.29; M 1.3; W 2.7; E 2.04; Q 2.83; T 1.67; Y 2.28; A 1.83; H 2.51; C 1.66; G 1.5
Q6: A 1.71; E 1.63; C 1.54; T 2.32; I 1.45; L 2.22; D 2.4; M 1.57; V 2.53; K 1.64; N 1.84; R 1.49; S 1.6; H 1.1; P 2.21; W 1.7; G 1.92; F 1.62; Y 1.6
V2: Q 1.99; F 2.17; N 3.04; C 1.33; Y 1.95; E 3.33; L 2.45; M 2.42; G 2.09; P 2.13; A 2.07; I 2.01; W 1.71; D 3.36; T 1.94; K 2.04; S 2.44; R 2.88
R8: T 3.95; H 1.93; M 2.87; Y 1.6; V 1.72; C 2.37; I 2.72; W 1.14; K 1.61; N 1.31; F 2.27; S 3.87; E 1.98; L 1.81; A 2.51; Q 1.92; G 2.47
D4: C 2.08; L 1.11; P 1.31; E 1.49; Q 2.74; A 2.86; G 1; S 1.7; T 1.48; K 2.28; F 2.21; Y 2.06; H 1.12
